Test results from paper doi:10.1101/2020.02.14.947937 (bioRxiv, 2020).

Molecular target: the molecule itself
Assay: cryo-EM structure

B1: mouse homomeric 5-HT3A receptor (receptor, UniProt P23979 24-489, looked up)
chain: SRRRATQARDTTQPALLRLSDHLLANYKKGVRPVRDWRKPTTVSIDVIMYAILNVDEKNQVLTTYIWYRQYWTDEFLQWTPEDFDNVTKLSIPTDSIWVPDILINEFVDVGKSPNIPYVYVHHRGEVQNYKPLQLVTACSLDIYNFPFDVQNCSLTFTSWLHTIQDINITLWRSPEEVRSDKSIFINQGEWELLEVFPQFKEFSIDISNSYAEMKFYVIIRRRPLFYAVSLLLPSIFLMVVDIVGFCLPPDSGERVSFKITLLLGYSVFLIIVSDTLPATAIGTPLIGVYFVVCMALLVISLAETIFIVRLVHKQDLQRPVPDWLRHLVLDRIAWILCLGEQPMAHRPPATFQANKTDDCSGSDLLPAMGNHCSHVGGPQDLEKTPRGRGSPLPPPREASLAVRGLLQELSSIRHFLEKRDEMREVARDWLRVGYVLDRLLFRIYLLAVLAYSITLVTLWSIWHYS
modifications: N-linked carbohydrates
- stoichiometry N: 5
